In one experiment the target is T1, Lip-PDZ_(DVL2) (human, UniProt O14641 265-361).
T1 construct: DVL2 (Dishevelled-2), human, PDZ domain, amino acids 265-361; also called His6x-Lip-PDZ; source: E. coli BL21-CodonPlus(DE3)-RIL, purified (Ni-NTA, SEC); not shown: Lipoyl (Lip), N-terminal, kept
T1 sequence (looked up): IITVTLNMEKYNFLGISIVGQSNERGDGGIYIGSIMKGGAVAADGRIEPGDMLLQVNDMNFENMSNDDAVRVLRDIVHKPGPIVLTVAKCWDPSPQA
Description: ITC; 40 μM Lip-PDZ_(DVL2) in the cell, 1.00 mM Lip-PBM_(Daple) or 1.33 mM Lip-PBM_(FZD4) in the syringe; 25°C; 25 mM sodium phosphate pH 6.7, 150 mM NaCl; one set of binding sites; apparent KD. The following applies: both partners purified. For orientation: Isothermal titration calorimetry measures the heat released or taken up as one component is titrated into another.

In experiment [1] the target is T2, PDZ_(DVL2) V334E cleft mutant (NMR sample) (human, UniProt O14641 265-361, V334E).
T2 construct: DVL2 (Dishevelled-2), human, PDZ domain, amino acids 265-361, V334E; source: E. coli BL21-CodonPlus(DE3)-RIL, purified (Ni-NTA, SEC)
T2 sequence (looked up): T1 sequence (looked up) with V70E
Description: NMR titration; 1H-15N fHSQC of 100 μM 15N-labelled PDZ_(DVL2) alone or with 150 μM (Daple, Girdin) or 300 μM (FZD4) Lip-tagged PBM peptide; 298 K; chemical shift perturbations and line broadening. The following applies: both partners purified.

Residue numbers refer to the chain shown, from its start. No end group written: not given here. *: point of attachment. Lip = lipoyl, O=C(CCCC[C@@H]1CCSS1)*

B1: Lip-PBM_(Daple) (C-terminal eight residues of Daple tagged with Lipoyl) (peptide, UniProt Q9P219 2021-2028, looked up)
peptide: Lip-VWYEYGCV
notes: Daple, C-terminal eight residues; the last residue is printed as Val2028, so 2021 is worked out; printed residues: Trp2022, Glu2024, Tyr2025, Gly2026, Cys2027, Val2028; source: E. coli BL21-CodonPlus(DE3)-RIL, purified (Ni-NTA, SEC); not shown: Lipoyl (Lip), N-terminal, kept
B1: the Kd in the experiment with Lip-PDZ_(DVL2) was determined as 9.1 µM. In experiment [1], the binding result is “binds”.
